The sequences below were run on Escherichia coli TOP10 (assay: shrunken log2 fold change of peptide-encoding DNA abundance (4.5 h post-induction vs induction); higher = less antimicrobial activity (less host growth inhibition)). Settings: time post-induction: 4.5 h; library: site-saturation at positions 5, 18, 19, 20.
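Further: peptides expressed intracellularly from a pBAD plasmid library in pooled LB shake-flask culture, induced with 0.3% L-arabinose, DNA abundance read by NGS, three biological replicates, DESeq2 with apeglm shrinkage.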

Row | Sequence | shrunken log2 fold change
1 | RRIRHRPPRLPRPRPRPTKDPRP | -0.154
2 | RRIRARPPRLPRPRPRPCGHPRP | 0.0628
3 | RRIRGRPPRLPRPRPRPAVAPRP | 0.813
4 | RRIRERPPRLPRPRPRPRHAPRP | -0.0387
5 | RRIRQRPPRLPRPRPRPSMSPRP | -0.393
6 | RRIRTRPPRLPRPRPRPFAMPRP | -0.348
7 | RRIRQRPPRLPRPRPRPQHIPRP | -0.357
8 | RRIRRRPPRLPRPRPRPSEQPRP | 0.262
9 | RRIRPRPPRLPRPRPRPGGIPRP | 0.114
10 | RRIRDRPPRLPRPRPRPPKIPRP | -0.0144
11 | RRIRRRPPRLPRPRPRPLCPPRP | 1.21
12 | RRIRSRPPRLPRPRPRPGCQPRP | 0.287
13 | RRIRWRPPRLPRPRPRPPEDPRP | 0.235
14 | RRIRPRPPRLPRPRPRPPFSPRP | 0.0978
15 | RRIRPRPPRLPRPRPRPHNKPRP | -0.508
16 | RRIRHRPPRLPRPRPRPCIHPRP | -0.345
17 | RRIRLRPPRLPRPRPRPWNAPRP | -0.249
18 | RRIRGRPPRLPRPRPRPVHLPRP | 0.034
19 | RRIRQRPPRLPRPRPRPLRNPRP | 0.121
20 | RRIRERPPRLPRPRPRPKWSPRP | -0.146

Row | Sequence | shrunken log2 fold change
21 | RRIRDRPPRLPRPRPRPYLHPRP | -0.119
22 | RRIRSRPPRLPRPRPRPKCAPRP | 0.0261
23 | RRIRARPPRLPRPRPRPGHDPRP | 0.215
24 | RRIRNRPPRLPRPRPRPVMIPRP | -0.311
25 | RRIRCRPPRLPRPRPRPMPTPRP | 0.592
26 | RRIRERPPRLPRPRPRPYNWPRP | -0.276
27 | RRIRRRPPRLPRPRPRPFCSPRP | -0.0439
28 | RRIRERPPRLPRPRPRPMQCPRP | -0.211
29 | RRIRERPPRLPRPRPRPLKIPRP | -0.402
30 | RRIRTRPPRLPRPRPRPQATPRP | 0.119
31 | RRIRLRPPRLPRPRPRPLVGPRP | 0.246
32 | RRIRKRPPRLPRPRPRPLWHPRP | 0.0951
33 | RRIRYRPPRLPRPRPRPGFCPRP | -0.266
34 | RRIRTRPPRLPRPRPRPNMKPRP | -0.526
35 | RRIRPRPPRLPRPRPRPWDEPRP | -0.151
36 | RRIRTRPPRLPRPRPRPWHEPRP | 0.111
37 | RRIRNRPPRLPRPRPRPPSPPRP | 0.538
38 | RRIRLRPPRLPRPRPRPPQTPRP | 0.0847
39 | RRIRRRPPRLPRPRPRPKEMPRP | 0.0252
40 | RRIRARPPRLPRPRPRPHKCPRP | -0.205

Row | Sequence | shrunken log2 fold change
41 | RRIRSRPPRLPRPRPRPCSQPRP | -0.214
42 | RRIRGRPPRLPRPRPRPPLIPRP | 0.669
43 | RRIRCRPPRLPRPRPRPMQAPRP | 0.249
44 | RRIRFRPPRLPRPRPRPVLDPRP | -0.474
45 | RRIRQRPPRLPRPRPRPWMVPRP | -0.0803
46 | RRIRNRPPRLPRPRPRPAWGPRP | 0.288
47 | RRIRARPPRLPRPRPRPAFYPRP | 0.117
48 | RRIRTRPPRLPRPRPRPTPYPRP | -0.298
49 | RRIRHRPPRLPRPRPRPSDWPRP | -0.327
50 | RRIRNRPPRLPRPRPRPMTNPRP | 0.454
51 | RRIRHRPPRLPRPRPRPKRDPRP | 0.158
52 | RRIRGRPPRLPRPRPRPFNNPRP | -0.206
53 | RRIRDRPPRLPRPRPRPNADPRP | 0.018
54 | RRIRMRPPRLPRPRPRPGEFPRP | 0.00408
55 | RRIRGRPPRLPRPRPRPFQGPRP | -0.0101
56 | RRIRVRPPRLPRPRPRPCSYPRP | -0.0326
57 | RRIRLRPPRLPRPRPRPMPLPRP | -0.043
58 | RRIRYRPPRLPRPRPRPQAQPRP | 0.0442
59 | RRIRNRPPRLPRPRPRPLVDPRP | 0.0463
60 | RRIRTRPPRLPRPRPRPCVGPRP | -0.013

Source: the supplement of paper PMC9112550, “Optimization of the antimicrobial peptide Bac7 by deep mutational scanning” (BMC Biology, 2022)
